Laboratory results from PMC10279719.
Non-standard residues stand in square brackets, D forms with d. pT = C[C@@H](OP(=O)(O)O)[C@H](N)C(=O)O

T1: PEAK3^FL from insect cells, phosphorylated by Src (human), Q6ZS72
T1 chain: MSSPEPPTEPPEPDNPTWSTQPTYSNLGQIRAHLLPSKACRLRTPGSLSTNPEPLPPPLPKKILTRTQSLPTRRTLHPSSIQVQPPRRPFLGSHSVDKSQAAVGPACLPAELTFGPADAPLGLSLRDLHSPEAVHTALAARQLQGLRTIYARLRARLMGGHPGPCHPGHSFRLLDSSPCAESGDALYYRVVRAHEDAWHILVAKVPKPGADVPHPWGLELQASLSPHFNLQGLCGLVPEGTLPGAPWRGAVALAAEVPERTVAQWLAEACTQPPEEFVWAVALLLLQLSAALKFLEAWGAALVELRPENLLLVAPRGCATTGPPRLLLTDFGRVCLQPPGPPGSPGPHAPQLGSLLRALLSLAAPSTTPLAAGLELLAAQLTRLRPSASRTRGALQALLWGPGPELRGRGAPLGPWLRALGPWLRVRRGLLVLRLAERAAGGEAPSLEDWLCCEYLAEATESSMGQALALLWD

T2: PEAK3^FL from E. coli, phosphorylated by Src (human), Q6ZS72
T2 chain: T1 chain

T3: full length PEAK3 from insect cells (PEAK3^FL, S69 phosphorylated) (human), Q6ZS72
T3 chain: T1 chain

T4: full length PEAK3 (PEAK3^FL, residues 1-473), from insect cells, phosphorylated by Src (human), Q6ZS72
T4 chain: T1 chain

T5: full length PEAK3 (PEAK3^FL, residues 1-473), from E. coli (human), Q6ZS72
T5 chain: T1 chain

T6: full length PEAK3 (PEAK3^FL, residues 1-473), from E. coli, phosphorylated by Src (human), Q6ZS72
T6 chain: T1 chain

B1: full length CrkII, dimer (CrkII^FL dimer), P46108-1 1-304 (natural protein)
chain: MAGNFDSEERSSWYWGRLSRQEAVALLQGQRHGVFLVRDSSTSPGDYVLSVSENSRVSHYIINSSGPRPPVPPSPAQPPPGVSPSRLRIGDQEFDSLPALLEFYKIHYLDTTTLIEPVSRSRQGSGVILRQEEAEYVRALFDFNGNDEEDLPFKKGDILRIRDKPEEQWWNAEDSEGKRGMIPVPYVEKYRPASASVSALIGGNQEGSHPQPLGGPEPGPYAQPSVNTPLPNLQNGPIYARVIQKRVPNAYDKTALALEVGELVKVTKINVSGQWEGECNGKRGHFPFTHVRLLDQQNPDEDFS
B2: full length CrkII, monomer (CrkII^FL monomer), P46108-1 1-304 (natural protein)
chain: B1 chain
B3: full length CrkII, dimer (CrkIIFL dimer), P46108-1 1-304 (natural protein)
chain: B1 chain
modifications: here or on the partner: biotin (EZ-Link NHS-PEG4-Biotin) in the SPR experiment only; biotin (EZ-Link NHS-PEG4-Biotin) in the SPR experiment only
B4: PEAK1 tandem-pT1165 peptide (residues 1152-1171) (peptide)
peptide: Ac-PPPLPKKMIIRAN[pT]EPISKD-NH2
B5: PEAK1 tandem peptide, non-phosphorylated (residues 1152-1171) (peptide)
peptide: Ac-PPPLPKKMIIRANTEPISKD-NH2
B6: PEAK2 tandem peptide, non-phosphorylated (residues 812-831) (peptide)
peptide: Ac-PPPLPQKKIVSRAASSPDGF-NH2

Assays:
[1] = target: T1, PEAK3^FL from insect cells, …; assay: SPR; details: natural protein, biotin (EZ-Link NHS-PEG4-Biotin) where immobilised for SPR, phosphotyrosine at 24 (by Src in vitro, MS/MS), phosphoserine at 69, remark: other sources report otherwise
[2] = target: T2, PEAK3^FL from E. coli, phosphorylated …; assay: SPR; details: natural protein, biotin (EZ-Link NHS-PEG4-Biotin) where immobilised for SPR, phosphotyrosine at 24 (by Src in vitro; the MS/MS was told for PEAK3^FL in general), remark: other sources report otherwise
[3] = target: T3, full length PEAK3 from insect cells …; assay: SPR; details: natural protein, biotin (EZ-Link NHS-PEG4-Biotin) where immobilised for SPR, phosphoserine at 69, remark: other sources report otherwise
[4] = target: T4, full length PEAK3 (PEAK3^FL, residues …); assay: SPR; biotinylated PEAK proteins (with or without Src phosphorylation) captured with a biotin CAPture kit; Grb2 FL, Grb2 SH2, CrkII SH2, CrkII FL monomer or dimer as analytes; Biacore 8K+, 20 °C, HBS-TP with NaCl raised to 500 mM; 1 M NaCl regeneration; steady state; details: remark: other sources report otherwise
[5] = target: T5, full length PEAK3 (PEAK3^FL, residues …); assay: as above; details: remark: other sources report otherwise
[6] = target: T6, full length PEAK3 (PEAK3^FL, residues …); assay: as above; details: remark: other sources report otherwise
[7] = target: full length CrkII, dimer (CrkIIFL dimer) (human), P46108; assay: SEC-MALS; Superdex 200 Increase 10/300 GL, 20 mM HEPES pH 7.5, 150 mM NaCl, 1 mM TCEP, 0.5 ml/min; details: remark: other sources report otherwise
[8] = target: 14-3-3η (residues 1-246) (human); assay: SPR; 14-3-3 isoforms amine coupled to a CM5 chip, tandem peptides as analytes (10 µM-10 nM for PEAK3 tandem-pS69, 20 µM-20 nM for all others); Biacore S200, 20 °C, HBS-TP; steady state, 1:1 model
[9] = target: 14-3-3γ (residues 1-247) (human); assay: as above
14-3-3σ (sigma) (human) = assay: as above
14-3-3σ (sigma) (human), sequence (A8K1N0 whole entry): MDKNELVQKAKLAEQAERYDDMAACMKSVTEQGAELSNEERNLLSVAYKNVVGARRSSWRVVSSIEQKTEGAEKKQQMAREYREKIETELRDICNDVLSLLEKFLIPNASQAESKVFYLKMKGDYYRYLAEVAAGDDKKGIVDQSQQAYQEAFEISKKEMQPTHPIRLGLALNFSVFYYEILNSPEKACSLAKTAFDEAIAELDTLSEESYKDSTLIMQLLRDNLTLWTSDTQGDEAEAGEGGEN

Binder	Kd [2]	Kd [3]	Kd [4]	Kd [5]	Kd [8]	Kd [9]	Kd (14-3-3σ (sigma) (human))	further results
B1	2.1 µM	2.4 µM	2.18 µM	7.6 µM				Kd [1]: 2.2 µM; Kd [6]: 2.11 µM
B2	2.6 µM	12.8 µM	2.7 µM	14.1 µM				
B3								stoichiometry N [7]: 2
B4					2.56 µM	1.77 µM	9.7 µM	
B5					> 100 µM	> 100 µM	> 100 µM	
B6							> 100 µM	
